Measured values as given in patent US7303866B2, “Methods of identifying an agent that modulates an interaction between 53BP1 and histone H3, and uses thereof” (priority 2004, dated 2007).
Where a SMILES comes first, the peptide text is derived from it. Where no end group is shown, it is not given here. [ ]: non-standard residue; d: D form. Lys(Me2) = CN(C)CCCC[C@H](N)C(=O)O; d = 2'-deoxy (DNA); r = 2'-OH (RNA)

Assays:
[1] = molecular target: T1, GST-53BP1 fusion protein containing 53BP1 residues 1480-1626 (Homo sapiens, UniProt Q12888); test: Competition of binding of GST-53BP1 to histone H3 by histone H3 peptides (pull-down, immunoblot); details: 5 or 25 μg peptide; histones prepared from 293T cells; bound histone H3 detected by immunoblotting
T1 construct: a GST-53BP1 fusion protein containing 53BP1 residues 1480-1626 to histones prepared from 293T cells
T1 sequence (Q12888 1480-1626): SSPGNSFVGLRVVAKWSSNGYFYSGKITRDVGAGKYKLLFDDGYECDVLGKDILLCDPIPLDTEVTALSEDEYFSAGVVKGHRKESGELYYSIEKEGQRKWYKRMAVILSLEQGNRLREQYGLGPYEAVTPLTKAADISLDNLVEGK
Excerpt: FIG. 3 Binding of the tandem tudor domain of 53BP1 to histone H3 methylated on Lys79. a, GST-53BP1 fusion proteins containing residues 1157-1634 or 1480-1626 of human 53BP1 or plain GST protein were examined for binding to calf thymus histones (ct) or recombinant histones H3 and H4 (r). The proteins were resolved by SDS-PAGE and stained with Coomassie Brilliant Blue. The labels for H3, H2A, H2B and H4 refer to the input histones (Inp. Hist.). b, Identification of 53BP1-bound histones as full-length and N-terminally-cleaved histone H3. Input and GST-53BP1-bound histones were stained with Coomassie Brilliant Blue (C.B.) or immunoblotted (IB) with an antibody that recognizes the C-terminus (C-ter) of histone H3. c, Enrichment for methylation of Lys79 in histone H3 bound to GST-53BP1 as compared to input histone H3. Bound full-length histone H3 (aa 1-135), bound cleaved histone H3 (aa 28-135) and full-length histone H3 from the input fraction were analyzed by tandem mass spectrometry (MS/MS). For each sample, the identified peptides that include Lys79 are shown. K, K# and K## represent non-, mono- and di-methylated lysine, respectively. TIC, total ion current (an indicator of peptide abundance); dM, absolute difference of the experimental and theoretical masses; xCorr, cross correlation value of the experimental MS/MS spectrum versus the theoretical; Ions, number of matched ions in the experimental MS/MS spectrum versus the total number of theoretically possible ions. d, Competition of binding of 53BP1 to histone H3 by methylated histone H3 peptides. Binding of a GST-53BP1 fusion protein containing 53BP1 residues 1480-1626 to histones prepared from 293T cells was performed in the presence of no competitor peptide (−) or 5 or 25 μg histone H3 peptides. Bound histone H3 was detected by immunoblotting. Peptides spanning residues 74-83 of histone H3 had either non- (nm), mono- (mm) or di-methylated (dm) Lys79 (K79); peptides spanning residues 23-34 and 23-32 of histone H3 had dimethylated Lys27 (K27) and Arg26 (R26), respectively. e, Binding of a GST fusion protein containing S. cerevisiae Rad9 residues 750-917 to histone H3. Binding was examined as in a. f, Amino acid substitutions that disrupt recruitment of 53BP1 to sites of DNA DSBs also disrupt binding to histone H3. Binding was examined as in a. g, Crosslinking of ectopically-expressed His-tagged GFP-53BP1 to endogenous histone H3 in irradiated U2OS cells. Non-transfected U2OS cells (−) or cells transfected with His-tagged GFP-53BP1 fusion proteins having wild-type (wt) or mutant (Asp1521Arg, D1521R) 53BP1 were crosslinked with formaldehyde (fr) or were mock-crosslinked (m). Triton-X100 insoluble material (TrIM) from these cells was incubated with nickel-coated beads. Histone H3 in the TrIM and nickel bead-bound (NiBB) fractions was detected by immunoblotting after the crosslinks were reversed.
Glutathione S-transferase (GST) proteins (5 μg) fused to residues 1157-1634 or 1480-1626 of human 53BP1 or 750-917 of S. cerevisiae Rad9 were bound to glutathione beads (Pharmacia). The beads were then incubated for 1 h at 4° C. with histones in buffer containing 25 mM BTP [pH 6.8], 1 M KCl, and 0.5% Triton X-100. After 6 washes the bound material was resolved on SDS-polyacrylamide gels and either stained with Coomassie Brilliant Blue or immunoblotted with an antibody that recognizes the C-terminus of histone H3 (AbCam). […]

U2OS cells = test: 53BP1 IR-induced foci in irradiated U2OS cells after siRNA (immunofluorescence); assay type: cell-based, human; details: 9 Gy IR, 15 min later
Procedure: FIG. 4 Histone H3 methylated on Lys79 and changes in higher order chromatin structure recruit 53BP1 to sites of DNA DSBs and chromatin. a, Suppression of histone H3 methylation on Lys79 inhibits recruitment of 53BP1 to sites of DNA DSBs. The percentage of irradiated (9 Gy) U2OS cells without (w/o) 53BP1 foci was determined from 4 independent experiments of control (ctl) siRNA-treated cells or cells transfected once (1) or 3 consecutive times (3) with dot1L-specific siRNA. Bars indicate standard errors. […] Histones prepared from non-irradiated or irradiated (9 Gy) 293T cells were resolved by SDS-PAGE and stained with Coomassie Brilliant Blue (C.B.; top panel) or immunoblotted with antibodies that recognize the C-terminus (C-ter) of histone H3, histone H3 dimethylated on Lys79 (K79dm), histone H2AX and phosphorylated histone H2AX (γ-H2AX; middle panel). […] Bound histone H3 was detected by immunoblotting (IB; lower panel). c, Exposure of cells to hypotonic media slows the nuclear diffusion of 53BP1. […] To show differences in GFP-53BP1 fluorescence before and after bleaching, the post-bleach image was pseudocolored magenta and merged with the pre-bleach image (Diff. image). […]
3 days after the last siRNA transfection, the cells were exposed to 9 Gy IR and 53BP1 intracellular localization was monitored by immunofluorescence 15 min later^5.

human Dot1L = molecular target: T2, human Dot1L (Homo sapiens, UniProt Q8TEK3); test: Suppression of histone H3 methylation on Lys79 by siRNA (immunoblot); assay type: cell-based; details: U2OS cells, dot1L siRNA transfection (up to 3 rounds)
T2 construct: U2OS cells were transfected with control siRNA (luciferase; Dharmacon) or siRNA directed against human dot1L; endogenous in cells; host or cells: U2OS osteosarcoma cells
T2 sequence (Q8TEK3 whole entry): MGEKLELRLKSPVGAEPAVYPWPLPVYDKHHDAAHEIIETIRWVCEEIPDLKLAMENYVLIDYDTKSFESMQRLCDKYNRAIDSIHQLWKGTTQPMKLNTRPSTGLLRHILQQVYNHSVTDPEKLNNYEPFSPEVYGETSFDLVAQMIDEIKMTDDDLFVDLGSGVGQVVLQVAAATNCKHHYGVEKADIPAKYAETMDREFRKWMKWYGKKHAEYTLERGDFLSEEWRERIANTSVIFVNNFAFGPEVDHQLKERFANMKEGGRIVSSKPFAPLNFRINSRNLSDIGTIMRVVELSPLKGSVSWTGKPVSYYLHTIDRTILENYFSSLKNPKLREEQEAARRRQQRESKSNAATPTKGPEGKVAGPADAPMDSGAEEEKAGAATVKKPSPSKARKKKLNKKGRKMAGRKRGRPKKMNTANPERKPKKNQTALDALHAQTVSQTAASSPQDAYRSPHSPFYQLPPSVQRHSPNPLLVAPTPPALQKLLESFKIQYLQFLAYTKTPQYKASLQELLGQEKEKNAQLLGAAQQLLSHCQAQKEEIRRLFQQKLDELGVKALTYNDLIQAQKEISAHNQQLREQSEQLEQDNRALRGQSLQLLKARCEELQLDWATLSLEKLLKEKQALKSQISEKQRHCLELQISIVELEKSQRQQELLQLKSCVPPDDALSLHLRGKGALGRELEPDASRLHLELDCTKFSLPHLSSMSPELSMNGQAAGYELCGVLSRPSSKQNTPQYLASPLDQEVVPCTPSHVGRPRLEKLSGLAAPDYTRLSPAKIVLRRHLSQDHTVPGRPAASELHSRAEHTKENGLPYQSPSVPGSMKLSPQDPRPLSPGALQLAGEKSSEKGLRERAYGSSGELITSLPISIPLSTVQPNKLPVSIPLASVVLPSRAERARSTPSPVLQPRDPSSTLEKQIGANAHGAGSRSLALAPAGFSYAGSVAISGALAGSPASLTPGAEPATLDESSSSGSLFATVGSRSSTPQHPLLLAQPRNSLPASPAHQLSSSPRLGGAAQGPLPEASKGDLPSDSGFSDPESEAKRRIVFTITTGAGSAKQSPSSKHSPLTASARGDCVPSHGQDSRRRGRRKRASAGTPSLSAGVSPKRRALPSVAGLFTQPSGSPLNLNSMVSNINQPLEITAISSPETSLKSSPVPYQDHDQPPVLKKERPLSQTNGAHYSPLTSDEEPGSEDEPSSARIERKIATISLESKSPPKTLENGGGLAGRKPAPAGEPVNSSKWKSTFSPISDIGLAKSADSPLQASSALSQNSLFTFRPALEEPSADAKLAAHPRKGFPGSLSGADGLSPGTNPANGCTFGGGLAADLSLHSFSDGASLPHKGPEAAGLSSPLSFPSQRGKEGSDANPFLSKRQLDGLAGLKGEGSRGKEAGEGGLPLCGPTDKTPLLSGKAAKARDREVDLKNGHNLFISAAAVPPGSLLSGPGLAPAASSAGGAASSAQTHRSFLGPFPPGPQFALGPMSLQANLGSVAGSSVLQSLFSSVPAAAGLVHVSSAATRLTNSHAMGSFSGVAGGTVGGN

[2] = molecular target: 53BP1 tandem tudor domain (Homo sapiens, UniProt Q12888); test: Isothermal titration calorimetry; assay type: binding; details: data not shown; read-out: dissociation constant
Sequence of 53BP1 tandem tudor domain (Q12888 1484-1603 limits assumed): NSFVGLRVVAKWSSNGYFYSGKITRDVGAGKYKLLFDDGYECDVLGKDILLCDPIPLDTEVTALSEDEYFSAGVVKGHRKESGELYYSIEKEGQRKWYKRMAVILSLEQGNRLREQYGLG

| Compound | competition for binding of histone H3 to 53BP1 [1] | also measured |
| --- | --- | --- |
| peptide with dimethylated Lys27: peptide spanning residues 23-34 of histone H3 with dimethylated Lys27 (KAARKSAPATGG; Lys27 dimethylated; UniProt P68431 24-35, looked up, fragment) | competed with lower efficiency | – |
| GCUCGCUAUGGAGAAUUACdTdT (guide GCUCGCUAUGGAGAAUUACTT; siRNA; sugars from the 5' end r19 d2, backbone not given here) [siRNA specific for human Dot1L, siRNA directed against human dot1L] | – | recruitment of 53BP1 to sites of DNA DSBs (U2OS cells): suppressed; methylation of histone H3 on Lys79 (human Dot1L): suppressed |
| monomethylated Lys79 peptide: peptide spanning residues 74-83 of histone H3 with mono-methylated Lys79 (IAQDFK(Me)TDLR) | competed with lower efficiency | – |
| peptide with dimethylated Arg26: peptide spanning residues 23-32 of histone H3 with dimethylated Arg26 (KAARKSAPAT; dimethylated Arg26; UniProt P68431 24-33, looked up, fragment) | competed with lower efficiency | – |
| CC[C@H](C)[C@H](N)C(=O)N[C@@H](C)C(=O)N[C@@H](CCC(N)=O)C(=O)N[C@@H](CC(=O)O)C(=O)N[C@@H](Cc1ccccc1)C(=O)N[C@@H](CCCCN(C)C)C(=O)N[C@H](C(=O)N[C@@H](CC(=O)O)C(=O)N[C@@H](CC(C)C)C(=O)N[C@@H](CCCNC(=N)N)C(=O)O)[C@@H](C)O (H-IAQDF[Lys(Me2)]TDLR-OH; N-terminus and C-terminus assumed) | competed for binding of histone H3 to 53BP1 | Kd [2]: < 1000 nM |
| corresponding non-methylated peptide: peptide spanning residues 74-83 of histone H3 with non-methylated Lys79 (IAQDFKTDLR) | did not compete | – |
